Target: human CCR2b with the FLAG epitope at the extreme amino-terminus, stably expressed on HEK-293 cells (Example 10B) (human), P41597
Test: cell-based or functional assay

human CCR2b with the FLAG epitope at the extreme amino-terminus, stably expressed on HEK-293 cells (Example 10B) (human), P41597, sequence (P41597 whole entry): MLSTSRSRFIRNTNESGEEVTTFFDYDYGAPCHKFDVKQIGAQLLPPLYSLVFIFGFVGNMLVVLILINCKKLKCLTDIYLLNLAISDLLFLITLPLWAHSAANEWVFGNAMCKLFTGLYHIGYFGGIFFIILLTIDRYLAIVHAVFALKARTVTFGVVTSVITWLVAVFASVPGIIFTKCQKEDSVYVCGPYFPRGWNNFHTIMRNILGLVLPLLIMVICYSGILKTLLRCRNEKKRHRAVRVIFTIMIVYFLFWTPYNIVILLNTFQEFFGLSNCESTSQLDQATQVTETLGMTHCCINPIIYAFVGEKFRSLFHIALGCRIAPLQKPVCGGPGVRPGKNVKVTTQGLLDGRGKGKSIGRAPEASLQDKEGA

B1: murine MCP-5, predicted mature 82 amino acid protein beginning with the N-terminal glycine (E. coli, PeproTech), Q62401 23-104 (ligand)
chain: GPDAVSTPVTCCYNVVKQKIHVRKLKSYRRITSSQCPREAVIFRTILDKEICADPKEKWVKNSINHLDKTSQTFILEPSCLG
An EC50 of intracellular calcium flux of 5 nM was found for B1 in this work.
